According to patent US20180264072A1:

What was measured:
talin H1-H4 [1] = experiment: isothermal titration calorimetry
talin H1-H4 [2] = experiment: isothermal titration calorimetry, cell talin H1-H4, titrant talin H46 (VBS3)
[3] = biological target: T1, vinculin in C2.7 mouse myoblast cells (mouse) (UniProt Q64727); experiment: cell-based or functional assay
T1 sequence: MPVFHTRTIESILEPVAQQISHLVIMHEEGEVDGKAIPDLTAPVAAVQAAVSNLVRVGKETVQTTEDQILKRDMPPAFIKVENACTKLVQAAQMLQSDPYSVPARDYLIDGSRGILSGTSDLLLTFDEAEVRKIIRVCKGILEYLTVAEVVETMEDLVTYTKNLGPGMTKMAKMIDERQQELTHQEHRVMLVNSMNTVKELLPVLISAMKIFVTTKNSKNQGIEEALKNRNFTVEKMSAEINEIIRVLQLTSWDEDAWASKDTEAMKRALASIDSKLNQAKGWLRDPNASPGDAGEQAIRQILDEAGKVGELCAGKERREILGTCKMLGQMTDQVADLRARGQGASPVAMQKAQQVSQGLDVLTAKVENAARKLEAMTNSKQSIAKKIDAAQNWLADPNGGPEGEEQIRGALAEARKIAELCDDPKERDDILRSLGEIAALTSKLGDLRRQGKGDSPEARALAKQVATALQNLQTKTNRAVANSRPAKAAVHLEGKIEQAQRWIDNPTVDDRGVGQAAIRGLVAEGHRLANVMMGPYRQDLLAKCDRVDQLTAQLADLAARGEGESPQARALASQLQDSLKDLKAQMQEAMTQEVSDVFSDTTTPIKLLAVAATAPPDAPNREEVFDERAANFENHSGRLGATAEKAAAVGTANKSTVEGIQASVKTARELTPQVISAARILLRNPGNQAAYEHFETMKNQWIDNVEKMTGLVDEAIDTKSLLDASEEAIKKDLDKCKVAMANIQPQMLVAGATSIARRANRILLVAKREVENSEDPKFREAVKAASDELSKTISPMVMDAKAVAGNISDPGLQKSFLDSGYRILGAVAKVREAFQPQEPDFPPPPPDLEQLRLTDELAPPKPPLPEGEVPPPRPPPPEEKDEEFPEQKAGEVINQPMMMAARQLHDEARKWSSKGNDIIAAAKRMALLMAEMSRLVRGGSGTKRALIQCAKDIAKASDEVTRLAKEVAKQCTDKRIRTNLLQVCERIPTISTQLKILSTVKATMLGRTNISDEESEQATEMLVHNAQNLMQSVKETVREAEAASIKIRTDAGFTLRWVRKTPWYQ

talin in HeLa cells = talin in HeLa cells (UniProt Q9Y490); experiment: cell-based or functional assay
talin H1-H4 [4] = experiment: ITC; talin H1-H4 in the cell, IpaA VBS1 peptide as titrant
talin H1-H4 [5] = experiment: size exclusion chromatography; stoichiometry listed for the ternary complex
talin H1-H4 [6] = experiment: ITC; HVD1:A483 equimolar complex in the cell, talin H1-H4 as titrant
talin H1-H4 [7] = experiment: ITC; A483 in the cell, talin H1-H4 as titrant
talin H1-H4 [8] = experiment: size exclusion chromatography; stoichiometry listed for the complex
talin H1-H4 [9] = experiment: ITC; talin H1-H4 in the cell, IpaA VBS3 peptide as titrant
talin H1-H4 [10] = experiment: ITC; A524 in the cell, talin H1-H4 as titrant

talin H1-H4, sequence (P26039 482-636): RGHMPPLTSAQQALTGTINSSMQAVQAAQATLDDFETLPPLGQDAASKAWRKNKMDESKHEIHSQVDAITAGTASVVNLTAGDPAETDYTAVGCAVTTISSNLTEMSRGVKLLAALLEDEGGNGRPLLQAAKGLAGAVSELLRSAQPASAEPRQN
IpaA 524-633 (A524), sequence (P18010 524-633 limits assumed): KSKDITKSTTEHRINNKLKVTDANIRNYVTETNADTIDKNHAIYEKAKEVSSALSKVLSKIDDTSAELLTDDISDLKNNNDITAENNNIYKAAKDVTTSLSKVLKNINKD
IpaA 483-633 (A483), sequence (P18010 483-633 limits assumed): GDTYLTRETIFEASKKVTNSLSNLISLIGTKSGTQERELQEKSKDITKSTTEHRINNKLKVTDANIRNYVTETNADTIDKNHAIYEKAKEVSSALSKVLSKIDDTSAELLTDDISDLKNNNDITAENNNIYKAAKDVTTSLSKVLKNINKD
A483:HVD1 complex, sequence (P18010 483-633 limits assumed): as above
GFP-A483, sequence (P18010 483-633): as the sequence (P18010 483-633 limits assumed) above
talin in HeLa cells, sequence (Q9Y490 whole entry): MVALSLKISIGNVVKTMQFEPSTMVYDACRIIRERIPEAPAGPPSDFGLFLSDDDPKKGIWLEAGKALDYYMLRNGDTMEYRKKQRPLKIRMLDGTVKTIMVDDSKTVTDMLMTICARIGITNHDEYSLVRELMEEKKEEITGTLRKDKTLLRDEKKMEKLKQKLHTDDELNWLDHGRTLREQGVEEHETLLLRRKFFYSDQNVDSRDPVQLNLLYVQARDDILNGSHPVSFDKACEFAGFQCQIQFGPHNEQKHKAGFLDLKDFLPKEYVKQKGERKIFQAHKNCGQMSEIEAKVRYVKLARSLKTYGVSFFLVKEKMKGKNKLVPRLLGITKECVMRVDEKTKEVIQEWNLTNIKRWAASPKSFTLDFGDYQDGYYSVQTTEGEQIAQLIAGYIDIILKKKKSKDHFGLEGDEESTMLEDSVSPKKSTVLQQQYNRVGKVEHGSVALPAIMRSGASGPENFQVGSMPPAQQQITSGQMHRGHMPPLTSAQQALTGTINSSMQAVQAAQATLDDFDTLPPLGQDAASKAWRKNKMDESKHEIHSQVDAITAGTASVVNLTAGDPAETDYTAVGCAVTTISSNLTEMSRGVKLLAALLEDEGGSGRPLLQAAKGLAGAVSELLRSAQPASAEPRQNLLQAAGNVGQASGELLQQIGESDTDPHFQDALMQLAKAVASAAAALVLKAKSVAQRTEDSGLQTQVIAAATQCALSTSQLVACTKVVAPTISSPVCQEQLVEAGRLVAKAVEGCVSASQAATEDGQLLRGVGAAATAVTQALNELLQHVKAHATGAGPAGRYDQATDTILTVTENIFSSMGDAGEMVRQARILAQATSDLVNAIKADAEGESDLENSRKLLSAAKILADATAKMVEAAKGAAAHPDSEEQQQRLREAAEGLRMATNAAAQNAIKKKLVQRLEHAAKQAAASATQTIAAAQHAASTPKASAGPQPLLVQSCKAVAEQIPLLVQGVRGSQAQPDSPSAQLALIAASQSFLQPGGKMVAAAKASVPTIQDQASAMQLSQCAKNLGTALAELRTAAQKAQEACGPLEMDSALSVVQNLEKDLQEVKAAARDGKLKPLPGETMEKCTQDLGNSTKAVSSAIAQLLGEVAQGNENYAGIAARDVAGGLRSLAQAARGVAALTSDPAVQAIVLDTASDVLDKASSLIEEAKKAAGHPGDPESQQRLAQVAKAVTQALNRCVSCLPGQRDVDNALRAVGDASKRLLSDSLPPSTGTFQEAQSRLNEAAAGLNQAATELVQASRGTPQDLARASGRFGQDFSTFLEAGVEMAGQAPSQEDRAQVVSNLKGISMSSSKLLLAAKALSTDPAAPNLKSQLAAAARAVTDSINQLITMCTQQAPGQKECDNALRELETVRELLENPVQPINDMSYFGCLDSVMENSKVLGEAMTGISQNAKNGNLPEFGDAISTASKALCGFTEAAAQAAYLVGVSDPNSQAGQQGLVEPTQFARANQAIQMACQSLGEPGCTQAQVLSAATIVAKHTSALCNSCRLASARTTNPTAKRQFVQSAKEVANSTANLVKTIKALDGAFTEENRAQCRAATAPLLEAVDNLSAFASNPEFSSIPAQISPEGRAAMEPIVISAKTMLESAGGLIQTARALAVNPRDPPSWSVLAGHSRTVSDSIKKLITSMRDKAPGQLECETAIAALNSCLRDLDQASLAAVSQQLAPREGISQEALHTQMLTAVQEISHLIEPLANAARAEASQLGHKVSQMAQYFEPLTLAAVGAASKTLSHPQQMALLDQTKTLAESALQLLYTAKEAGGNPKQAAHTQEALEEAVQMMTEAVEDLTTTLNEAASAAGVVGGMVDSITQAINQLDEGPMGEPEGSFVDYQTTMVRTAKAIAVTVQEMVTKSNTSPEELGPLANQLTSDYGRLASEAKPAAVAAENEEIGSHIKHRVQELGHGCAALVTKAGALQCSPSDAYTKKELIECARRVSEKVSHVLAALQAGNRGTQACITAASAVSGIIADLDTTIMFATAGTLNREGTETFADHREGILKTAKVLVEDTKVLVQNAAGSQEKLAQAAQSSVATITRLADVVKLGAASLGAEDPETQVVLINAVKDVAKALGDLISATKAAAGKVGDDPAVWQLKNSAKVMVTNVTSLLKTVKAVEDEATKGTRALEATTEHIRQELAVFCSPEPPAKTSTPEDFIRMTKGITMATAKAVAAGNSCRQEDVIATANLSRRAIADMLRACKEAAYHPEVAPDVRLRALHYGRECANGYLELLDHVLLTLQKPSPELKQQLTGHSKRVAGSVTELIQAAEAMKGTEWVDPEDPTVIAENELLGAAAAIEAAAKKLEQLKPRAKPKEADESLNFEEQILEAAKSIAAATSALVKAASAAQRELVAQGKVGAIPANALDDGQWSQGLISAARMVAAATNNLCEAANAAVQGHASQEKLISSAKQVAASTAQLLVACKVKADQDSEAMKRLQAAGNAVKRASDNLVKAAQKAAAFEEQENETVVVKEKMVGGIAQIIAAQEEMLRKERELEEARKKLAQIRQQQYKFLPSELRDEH
IpaA full length, sequence (P18010 whole entry): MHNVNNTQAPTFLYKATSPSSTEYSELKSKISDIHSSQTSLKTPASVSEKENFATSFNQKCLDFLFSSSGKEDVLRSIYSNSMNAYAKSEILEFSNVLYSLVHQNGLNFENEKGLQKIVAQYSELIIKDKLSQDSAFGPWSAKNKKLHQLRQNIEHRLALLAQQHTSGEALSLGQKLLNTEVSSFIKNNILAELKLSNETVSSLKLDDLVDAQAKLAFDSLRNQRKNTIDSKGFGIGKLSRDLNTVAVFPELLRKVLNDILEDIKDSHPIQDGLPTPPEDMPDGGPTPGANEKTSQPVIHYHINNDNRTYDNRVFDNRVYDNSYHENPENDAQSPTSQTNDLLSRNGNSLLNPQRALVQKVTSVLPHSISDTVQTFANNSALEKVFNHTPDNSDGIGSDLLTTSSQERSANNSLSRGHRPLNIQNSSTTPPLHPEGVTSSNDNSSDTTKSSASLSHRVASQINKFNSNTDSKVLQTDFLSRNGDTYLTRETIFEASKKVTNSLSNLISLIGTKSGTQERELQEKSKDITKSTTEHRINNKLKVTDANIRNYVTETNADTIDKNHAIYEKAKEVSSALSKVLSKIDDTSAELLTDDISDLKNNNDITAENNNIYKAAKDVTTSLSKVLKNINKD

Q: Which -TΔS (talin H1-H4 [1]) does the source give for “talin H46 (talin VBS3) α-helix (peptide)” here?
A: 7.2 kcal/mol

Q: And the Kd (talin H1-H4 [1])?
A: 60 nM

Q: What about the ΔH (talin H1-H4 [1]) of the same substance?
A: -17 kcal/mol

Q: What about the N (talin H1-H4 [2]) of the same substance?
A: 0.92

Q: What about the ΔG (talin H1-H4 [2]) of the same substance?
A: -9.97 kcal/mol

Q: What does the source list for GFP-A483 (from UniProt P18010 483-633)?
A: adhesion stress σ=F/A at detachment, parallel plates [3]: 6.5 nN/µm^2; median cell surface [3]: 1850 µm^2; median time between two divisions (second group of GFP-A483 cells) [3]: 17.1 h; median velocity of migration [3]: 30.7 µm/hour; rate of single-cell traction force generation (dF/dt), parallel plates [3]: 0.4

Q: “IpaA full length (from UniProt P18010 1-633)” was tested. Which percentage of foci forming talin coat structures (talin in HeLa cells) did it give?
A: 52%

Q: Which results are given for IpaA VBS1 peptide?
A: -TΔS (talin H1-H4 [4]): -2.47 kcal/mol; Kd (talin H1-H4 [4]): 15200 nM; N (stoichiometry) (talin H1-H4 [4]): 1.22; ΔG (talin H1-H4 [4]): -6.58 kcal/mol; ΔH (talin H1-H4 [4]): -4.1 kcal/mol

Q: With “A483:HVD1 complex (from UniProt P18010 483-633; P18206 1-258)” as the substance, how does the -TΔS (talin H1-H4 [1]) read?
A: 1.37 kcal/mol

Q: What about the stoichiometry (talin H1-H4 [5]) of the same substance?
A: 1

Q: What about the -TΔS (talin H1-H4 [6]) of the same substance?
A: -1.37 kcal/mol

Q: And the N (stoichiometry) (talin H1-H4 [6])?
A: 0.459

Q: And the ΔG (talin H1-H4 [6])?
A: -7.68 kcal/mol

Q: And the ΔH (talin H1-H4 [6])?
A: -9.05 kcal/mol

Q: How did the -TΔS (talin H1-H4 [7]) turn out when “IpaA 483-633 (A483) (from UniProt P18010 483-633)” was run?
A: -3.8 kcal/mol

Q: What about the Kd (talin H1-H4 [7]) of the same substance?
A: 24.9 nM

Q: What about the N (stoichiometry) (talin H1-H4 [7]) of the same substance?
A: 1

Q: What about the ΔG (talin H1-H4 [7]) of the same substance?
A: -10 kcal/mol

Q: And the ΔH (talin H1-H4 [7])?
A: -6.23 kcal/mol

Q: What about the stoichiometry (molar ratio of the complex (1:1)) (talin H1-H4 [8]) of the same substance?
A: 1

Q: Which results are given for IpaA VBS3/TBS peptide?
A: -TΔS (talin H1-H4 [9]): -2.83 kcal/mol; Kd (talin H1-H4 [9]): 175 nM; N (stoichiometry) (talin H1-H4 [9]): 0.893; ΔG (talin H1-H4 [9]): -9.22 kcal/mol; ΔH (talin H1-H4 [9]): -6.39 kcal/mol; -TΔS (talin H1-H4 [1]): -1.53 kcal/mol; Kd (talin H1-H4 [1]): 150 nM; ΔG (talin H1-H4 [1]): -9.07 kcal/mol

Q: Which results are given for “IpaA 524-633 (A524) (from UniProt P18010 524-633)”?
A: -TΔS (talin H1-H4 [10]): -3.47 kcal/mol; Kd (talin H1-H4 [10]): 2030 nM; N (stoichiometry) (talin H1-H4 [10]): 1.5; ΔG (talin H1-H4 [10]): -7.45 kcal/mol; ΔH (talin H1-H4 [10]): -3.98 kcal/mol; stoichiometry (molar ratio of the complex (1:1)) (talin H1-H4 [8]): 1
